# From patent US20200010567A1 (NEURIMMUNE, published 2020)
# T1: GA10: H-(GA)10HHHHHH-NH2 (C-terminal amide)
# T1 peptide: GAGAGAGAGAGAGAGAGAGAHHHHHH
# T2: GA3: H-(GA)3HHHHHH-NH2
# T2 peptide: H-GAGAGAHHHHHH-NH2
# T3: GA2: H-(GA)2HHHHHH-NH2
# T3 peptide: H-GAGAHHHHHH-NH2
# T4: GA4: H-(GA)4HHHHHH-NH2
# T4 peptide: H-GAGAGAGAHHHHHH-NH2
# T5: GA5: H-(GA)5HHHHHH-NH2
# T5 peptide: H-GAGAGAGAGAHHHHHH-NH2
# T6: (GA)15: H-CHHHHHH(GA)15-OH
# T6 construct: synthetic, not coupled to BSA; also called poly-GA DPR protein peptide
# T6 peptide: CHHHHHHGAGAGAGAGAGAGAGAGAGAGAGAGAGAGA
# B1: NI-308.15O7 (antibody, V domains shown)
# VH: QVQLVESGGGVVQPGRSLRLSCAASGFTFSNHAMHWVRQAPGKGLEWVAVISYDGENTYYADSIEGRFTISRDNFKNTLFLQMYSLTADDTAMYFCARGGRRGHFTSYYLDYWGQGTLVTVSS
# VL: CDIQMTQSPSSLSASVGDRVTITCRASQNIDKYLNWYQQIPGKAPKLLIYAASSLHSGVPSRFSGSGSGTDFSLTISSLQPEDFAIYYCQQSYSSFRTFGQGTKLEIK
# B2: NI-308.18F7 (antibody, V domains shown)
# VH: QVQLQESGPGLVKPSETLSVTCTVSGGSINDYYWNWIRQPAGKGLEWIGRIYASGTINYNPSLQSRVTMSIDTSKNQFSLDLISVSAADTAVYYCARWGQVVGDYYYGMDVWGQGTTVTVSS
# VL: EIVLTQSPLSLSVTPGEPASISCKSSQSLQHTNGYNYLDWYLLKPGQSPQLLIFLTSNRASGVPDRFSGSGSGTNFTLKISRVEAEDVGVYYCMEGIQLWTFGQGTKLEIK
# notes: Recombinant complete human IgG1, kappa
# B3: NI-308.28G1 (antibody, V domains shown)
# VH: QVQLQESGPRLVKPSETLSLTCTVAGGSVNSYYWTWIQQSPGKGLEWLGRIYIAGRTNYNPSLTSRIALSVDTSRNQLSLKLTSVTAADTAIYYCARWGAESGDYYYGVDVWGPGTLVTVSS
# VL: EIVMTQSPLSLPVTPGEPASISCKSSEGLLHSNGYTYLDWYLQKPGQAPQLLIFLASNRAAGVPDRFSGSGSGTDFTLKISRVEAEDVGVYYCMQAIQSPWTFGPGTKVEIK
# notes: as for B2
# B4: NI-308.5G2 (antibody, V domains shown)
# VH: EVQLVQSGADLRNPGASVTVSCTASGYHFADNAINWLRQAPGQRLEWMGWINIYSGNTKYSQNFQGRVTFTRNTSASTAFMHLRSLRSEDTAVYFCARDPDSSGYYLPYFDYWGQGTLVTVSS
# VL: DIQLTQSPDSLTLSLGERATINCKSSQSVFYNSNNKNYLAWYQQKPGQPPKLLMYWASTRESGVTDRFSGSGSGTDFTLTITNLQAEDVAVYYCQQFYSSPLTFGGGTKVEIK
# notes: as for B2
# Key:
# [1] = molecular target: T1, GA10: H-(GA)10HHHHHH-NH2; experiment: indirect ELISA, His-tagged peptide coated at 50 ug/ml, antibody titrated [also D00024 FIG. 7F]
# Text: (§1) In brief, dipeptide repeat proteins were synthesized and purified by Schafer-N (Copenhagen, Denmark): GA₂₀: H-(GA)₂₀HHHHHH-NH₂; GA₁₀: H-(GA)₁₀HHHHHH-NH₂; GA₆: H-(GA)₆HHHHHH-NH₂; GA₅: H-(GA)₅HHHHHH-NH₂; GA₄: H-(GA)₄HHHHHH-NH₂; GA₃: H-(GA)₃HHHHHH-NH₂; GA₂: H-(GA)₂HHHHHH-NH₂; GP₂₀: H-(GP)₂₀HHHHHH-NH₂; GP₁₀: H-(GP)₁₀HHHHHH-NH₂; GP₆: H-(GP)₆HHHHHH-NH₂; GP₅: H-(GP)₅HHHHHH-NH₂; GP₄: H-(GP)₄HHHHHH-NH₂; GP₃: H-(GP)₃HHHHHH-NH₂; GP₂: H-(GP)₂HHHHHH-NH₂. GR₂₀: H-(GR)₂₀HHHHHH-NH₂; GR₁₀: H-(GR)₁₀HHHHHH-NH₂; GR₆: H-(GR)₆HHHHHH-NH₂; GR₅: H-(GR)₅HHHHHH-NH₂; GR₄: H-(GR)₄HHHHHH-NH₂; GR₃: H-(GR)₃HHHHHH-NH₂; GR₂: H-(GR)₂HHHHHH-NH₂; PA₂₀: H-(PA)₂₀HHHHHH-NH₂; PA₁₀: H-(PA)₁₀HHHHHH-NH₂; PA₆: H-(PA)₆HHHHHH-NH₂; PA₅: H-(PA)₅HHHHHH-NH₂; PA₄: H-(PA)₄HHHHHH-NH₂; PA₃: H-(PA)₃HHHHHH-NH₂; PA₂: H-(PA)₂HHHHHH-NH₂; PR₂₀: H-(PR)₂₀HHHHHH-NH₂; PR₁₀: H-(PR)₁₀HHHHHH-NH₂; PR₆: H-(PR)₆HHHHHH-NH₂; PR₅: H-(PR)₅HHHHHH-NH₂; PR₄: H-(PR)₄HHHHHH-NH₂; PR₃: H-(PR)₃HHHHHH-NH₂; PR₂: H-(PR)₂HHHHHH-NH₂. 96-well microplates (Corning Incorporated, Corning, USA) were coated with dipeptide repeat protein peptides at a concentration of 50 μg/ml in coating buffer (15 mM Na₂CO₃, 35 mM NaHCO₃, pH 9.42). Non-specific binding sites were blocked for 1 h at room temperature with PBS/0.1% Tween®-20 containing 2% BSA (Sigma-Aldrich, Buchs, Switzerland). Primary antibodies were diluted to the indicated concentrations and incubated 1 h at room temperature, followed by incubation with a donkey anti-human IgG Fcγ-specific antibody conjugated with HRP (Jackson ImmunoResearch Laboratories, Inc., West Grove, USA). Binding was determined by measurement of HRP activity in a standard colorimetric assay. EC₅₀ values were estimated by non-linear regression using GraphPad Prism software (San Diego, USA).
# [2] = molecular target: T2, GA3: H-(GA)3HHHHHH-NH2; experiment: as above
# Text: as §1
# [3] = molecular target: T3, GA2: H-(GA)2HHHHHH-NH2; experiment: as above
# Text: as §1
# [4] = molecular target: T4, GA4: H-(GA)4HHHHHH-NH2; experiment: as above
# Text: as §1
# [5] = molecular target: T2, GA3: H-(GA)3HHHHHH-NH2; experiment: indirect ELISA, His-tagged peptide coated at 50 ug/ml, antibody titrated [also D00025 FIG. 7G]
# Text: as §1
# [6] = molecular target: T3, GA2: H-(GA)2HHHHHH-NH2; experiment: as above
# Text: as §1
# [7] = molecular target: T4, GA4: H-(GA)4HHHHHH-NH2; experiment: as above
# Text: as §1
# [8] = molecular target: T5, GA5: H-(GA)5HHHHHH-NH2; experiment: as above
# Text: as §1
# [9] = molecular target: T6, (GA)15: H-CHHHHHH(GA)15-OH; experiment: indirect ELISA, uncoupled peptide coated, antibody titrated [also D00013 FIG. 3D]
# Protocol: (§2) In brief, dipeptide repeat proteins were synthesized and purified by Schafer-N(Copenhagen, Denmark): (GA)₁₅: H-CHHHHHH(GA)₁₅-OH; (GP)₁₅: H-C(GP)₁₅-OH; (GR)₁₅: H-C(GR)₁₅-OH; (PA)₁₅: H-C(PA)₁₅-OH; (PR)₁₅: H—C(PR)₁₅-OH. DPR protein peptides were then conjugated via a bifunctional linker (SMCC) to bovine serum albumin (BSA). 96-well microplates (Corning Incorporated, Corning, USA) were coated with BSA-coupled or -uncoupled dipeptide repeat protein peptides at a concentration of either 5 μg/ml or 20 μg/ml in coating buffer (15 mM Na₂CO₃, 35 mM NaHCO₃, pH 9.42). Non-specific binding sites were blocked for 1 h at room temperature with PBS/0.1% Tween®-20 containing 2% BSA (Sigma-Aldrich, Buchs, Switzerland). Primary antibodies were diluted to the indicated concentrations and incubated 1 h at room temperature, followed by incubation with a donkey anti-human IgG Fcγ-specific antibody conjugated with HRP (Jackson ImmunoResearch Laboratories, Inc., West Grove, USA). Binding was determined by measurement of HRP activity in a standard colorimetric assay. EC₅₀ values were estimated by non-linear regression using GraphPad Prism software (San Diego, USA).
# [10] = molecular target: T7, BSA-coupled (GP)15 DPR protein peptide (bovine, conjugated via a bifunctional linker (SMCC) to bovine serum albumin); experiment: indirect ELISA, BSA-coupled peptide coated, antibody titrated [also D00014 FIG. 3G]
# T7 construct: also called BSA-(GP)15
# Protocol: as §2
# T7 sequence (peptide, as listed by the source limits assumed, chain 1 of 2): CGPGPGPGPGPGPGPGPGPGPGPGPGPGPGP
# T7 sequence (P02769 25-607 limits assumed, chain 2 of 2): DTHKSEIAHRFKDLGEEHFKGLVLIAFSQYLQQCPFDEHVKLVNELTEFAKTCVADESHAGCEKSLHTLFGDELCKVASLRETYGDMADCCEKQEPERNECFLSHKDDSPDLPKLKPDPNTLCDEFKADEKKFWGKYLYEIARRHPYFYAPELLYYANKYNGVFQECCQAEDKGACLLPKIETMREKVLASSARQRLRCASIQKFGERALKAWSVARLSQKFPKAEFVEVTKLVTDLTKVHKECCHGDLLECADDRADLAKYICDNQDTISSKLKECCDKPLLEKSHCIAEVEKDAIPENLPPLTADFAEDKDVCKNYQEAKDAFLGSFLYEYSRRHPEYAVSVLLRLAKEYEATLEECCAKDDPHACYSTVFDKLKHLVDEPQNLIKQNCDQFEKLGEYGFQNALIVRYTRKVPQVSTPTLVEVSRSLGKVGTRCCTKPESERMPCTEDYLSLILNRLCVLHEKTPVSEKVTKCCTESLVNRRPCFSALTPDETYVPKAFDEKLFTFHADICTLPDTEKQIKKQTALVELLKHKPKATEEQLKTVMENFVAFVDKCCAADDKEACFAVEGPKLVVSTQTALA
binder,measurement,setting,value
B1,EC50,[1],0.37 nM
same,binding result,[2],no binding (tested: about 4x10^5 pM (last point))
same,binding result,[3],no binding (tested: about 4x10^5 pM (last point))
same,binding result,[4],no binding (tested: about 4x10^5 pM (last point))
B2,binding result,[5],no binding (tested: about 4x10^5 pM (last point))
same,binding result,[6],no binding (tested: about 4x10^5 pM (last point))
same,binding result,[7],no binding (tested: about 4x10^5 pM (last point))
same,binding result,[8],no binding (tested: about 4x10^5 pM (last point))
B3,EC50,[9],2 nM
B4,EC50,[10],0.21 nM
